# Test results from article PMC8420271 (The EMBO Journal, 2021).
# B1: GST-GSDMD mutant lacking amino acids 265-284 (natural protein)
# chain: MGSAFERVVRRVVQELDHGGEFIPVTSLQSSTGFQPYCLVVRKPSSSWFWKPRYKCVNLSIKDILEPDAAEPDVQRGRSFHFYDAMDGQIQGSVELAAPGQAKIAGGAAVSDSSSTSMNVYSLSVDPNTWQTLLHERHLRQPEHKVLQQLRSRGDNVYVVTEVLQTQKEVEVTRTHKREGSGRFSLPGATCLQGEGQGHLSQKKTVTIPSGSTLAFRVAQLVIDSDLDVLLFPDKKQRTFQPPATGHKRSTSEGAWPQLPSGLSEDFQGLRAEVETISKELELLDRELCQLLLEGLEGVLRDQLALRALEEALEQGQSLGPVEPLDGPAGAVLECLVLSSGMLVPELAIPVVYLLGALTMLSETQHKLLAEALESQTLLGPLELVGSLLEQSAPWQERSTMSLPPGLLGNSWGEGAPAWVLLDECGLELGEDTPHVCWEPQAQGRMCALYASLALLSGLSQEPH
# Target: His-tagged SARS-CoV-2 nucleocapsid (SARS-CoV-2, UniProt P0DTC9 1-419)
# Assay: pull-down
binder,measurement,value
B1,binding result,binds
